Laboratory results published in the nanobody polyreactivity screen of Harvey et al. (2022).

Assay: yeast display, Sf9 membrane polyspecificity reagent, FACS + sequencing; frameworks hold sequencing errors
Method in brief: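 Synthetic nanobody libraries on Saccharomyces cerevisiae BJ5465 were galactose-induced for 36–48 hours, stained 1 hour at 4 °C with 10% biotinylated, detergent-solubilized Sf9 membrane reagent and enriched on streptavidin microbeads. FACS then separated cells into low and high (top ~1%) gates by anti-HA (expression) and streptavidin (reagent binding) fluorescence. Genes were colony-PCR amplified, MiSeq 2 × 250 sequenced and CDR-length filtered. A clone's polyreactivity label is that of its gate of origin.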

Question: With “QVQLVESGGGLVQAGGSLRISCAASGIILSDNAMGWYRQAPGKEREFVAAITGSGGSTYYADSVKGRFTISRDNAKNTVYLQMNSLKPEDTAVYYCAADGPYGYYYGHYGYWGQGTQVTVSS” as the sequence, how does the “polyreactivity (PSR sort gate)” value read?
Answer: Its value is “low polyreactivity”.

Question: Which “polyreactivity (PSR sort gate)” value does the source give for “QVQLVESGGGLVQAGGSLRISCAASGITFRWYAMGWYRQAPGKERELVAGINSSGGSTNYADSVKGRFTISRDNAKNTVYLQMNSLKPADTAVYYCNADLRSEYDYWGQGTQETVSS” here?
Answer: Its value is “low polyreactivity”.

Question: With “QVQLVESGGGLVQAGGSLRISCAASGITFTGYAMGWYRQAPGKEKELVAAIRGGGNTYYADSVKGRFTISRDNAKNTVYLQMNSLKPEDTAVYYCATSYASYTYWYDYWGQGTQVTVSS” as the sequence, how does the “polyreactivity (PSR sort gate)” value read?
Answer: The value was “low polyreactivity”.

Question: With “QVQLVESGGGLVQAGGSLRISCAASGITITSYAMGWYRQAPGKEWELVASIDSDDSTNYADSVKGRFTISRDNAKNTVYFQMNSLKPEDNAVYYSAATSKPLGLKTYGYWGQGTQVTVSS” as the sequence, how does the “polyreactivity (PSR sort gate)” value read?
Answer: The value was “low polyreactivity”.

Question: For “QVQLVESGGGLVQAGGSLRISCAASGITLYDNVMGWYRQAPGKERELVAAISSSGTTKYYADSVKGRFTMSRDHANNTVYLQMNSLKPEDTAGSYCAADGITWYAIAYYYWGQGTQVTVSS”, which “polyreactivity (PSR sort gate)” value is on record?
Answer: Its value is “high polyreactivity”.

Question: With “QVQLVESGGGLVQAGGSLRISCAASGITLYFYAMGWYRQAPGKERELVAGISGSVGSTHYADSVKGRFSISRDNAKNTVYLQMNSLKPEDTAVYYCAARALTWSRVPRYNYWGQGTQVTVSS” as the sequence, how does the “polyreactivity (PSR sort gate)” value read?
Answer: Its value is “high polyreactivity”.

Question: Which “polyreactivity (PSR sort gate)” value does the source give for “QVQLVESGGGLVQAGGSLRISCAASGLTFEVYAMGWYRQAPGIERELVATITYSGGITYYADSVKGRFTISRDNAKNTVYLQMNSLKPEDTAVYYRIGFGGDYDYWGQGTQVTVSS” here?
Answer: The value was “low polyreactivity”.

Question: Which “polyreactivity (PSR sort gate)” value does the source give for “QVQLVESGGGLVQAGGSLRISCAASGLTFGKYAMGWYRQEPGKERELVAAISWSVTSTYYADSVKGRFTISRDNAKNTVYLQMNSLKPEDTAVYYCAAEIIKLAYRVAYYYWGQGTQVTVSS” here?
Answer: Its value is “high polyreactivity”.

Question: Which “polyreactivity (PSR sort gate)” value does the source give for “QVQLVESGGGLVQAGGSLRISCAASGLTSVTYAMGWYRQAPGKERELVAAITSRAGSTYYADSVKGRFTISRDNAKNTVYLQMNSLKPEDTAVYYCAKDIIRKVYAGYVGRYDYWGQGTQVTVSS” here?
Answer: Its value is “low polyreactivity”.

Question: For “QVQLVESGGGLVQAGGSLRISCAASGNIFGIYTMGWYRQAPGKEREFFAVISLSGTSTYYADSVKGRFTISRDNAKNTVYLQMNSLKPEDTAVYYCNARTPHNKGRRRAYDYWGLGTQVTVSS”, which “polyreactivity (PSR sort gate)” value is on record?
Answer: The value was “high polyreactivity”.

Question: For “QVQLVESGGGLVQAGGSLRISCAASGNIFPYYAMGWYRQAPGKERELVATITRGGRTNYADSVKGRFTISRDNAKNTVYLQMNSLKPEDTAVYYCASYSYTLTYRFDYWGQGTQVTVSS”, which “polyreactivity (PSR sort gate)” value is on record?
Answer: Its value is “low polyreactivity”.

Question: With “QVQLVESGGGLVQAGGSLRISCAASGNIFSVNAMGWYRQAPGKEREFVAAISGSGGSTYYADSVKGRFTISRDNAKNTVYLQMNSLKPEDTAVYYCAKRWYHPSSLPRYVFRGVDYWGQGTQVTVSS” as the sequence, how does the “polyreactivity (PSR sort gate)” value read?
Answer: Its value is “high polyreactivity”.

Question: For “QVQLVESGGGLVQAGGSLRISCAASGRIFANYAMGWYRQAPGKEMELVAAITTNGGGTYYADSVKVRFTISRDNAKNTVYLQMKSLIPEDTAVYYCIAVKQRSSIFDYWGQGTQLTVSS”, which “polyreactivity (PSR sort gate)” value is on record?
Answer: The value was “low polyreactivity”.

Question: With “QVQLVESGGGLVQAGGSLRISCAASGRIFNINAMGWYRPAPGKERELVAAITWRSGSTYYADSVKGRFTISRDNAKNTVYLHMNSLKPEDTAVYYCAADFSQTRRPIRFYYWGQGSQVTVSS” as the sequence, how does the “polyreactivity (PSR sort gate)” value read?
Answer: The value was “high polyreactivity”.

Question: Which “polyreactivity (PSR sort gate)” value does the source give for “QVQLVESGGGLVQAGGSLRISCAASGRIFSFYAMGWYRQAPGKERELVAAISYSDGSTYYADSVKGRFTISRDNAKNTVYLQMNSLKPEDTAVYYCAKYGYDHDYNYWGQGTQVTVSS” here?
Answer: Its value is “low polyreactivity”.

Question: With “QVQLVESGGGLVQAGGSLRISCAASGRIFSGNAMGWYRQAPGKERELVAAISSGGSTYYADSVKGRFTISRYNAMNTVFLQMNILKPEDTAVYYCKKSRGRKWRGNYSVVKLLMGYWGQGSQVTVSS” as the sequence, how does the “polyreactivity (PSR sort gate)” value read?
Answer: The value was “low polyreactivity”.

Question: For “QVQLVESGGGLVQAGGSLRISCAASGRIFSYNDMGWYRPAPGKERELVAAITGGGSTNYADSVKGRFTISRDNAKNTVYLQMNSLKPEDTAVYYCAARSWSDKYWGQGTQVTVSS”, which “polyreactivity (PSR sort gate)” value is on record?
Answer: The value was “high polyreactivity”.

Question: With “QVQLVESGGGLVQAGGSLRISCAASGRIFVSNAAMGWYIQAPGKESELVAAITSRGGRTTYADSVKGRFTSSRDNAKNTVYLQMNSLKPEDTAVYYCAARVRGYDWVRGSPFHHNYWGQGTQVTVSS” as the sequence, how does the “polyreactivity (PSR sort gate)” value read?
Answer: The value was “high polyreactivity”.

Question: With “QVQLVESGGGLVQAGGSLRISCAASGRIFWTYAMGSYRQAPGKERELVAAITWRGGSTSYADSVKGRFTISRDNAKNTVYLQMNSLKPEDTAVYYCAADTYSYLRGTYEYDYWGQGTQVTVSS” as the sequence, how does the “polyreactivity (PSR sort gate)” value read?
Answer: Its value is “high polyreactivity”.

Question: For “QVQLVESGGGLVQAGGSLRISCAASGRIFYCYVMGWYRQAPGKERELVAAINLSGTSTYYADSVKGRFTISRDNAKNTVYLQMNSLKPEDTAVYYCAADQVGWTYDYWGQGTQVTVSS”, which “polyreactivity (PSR sort gate)” value is on record?
Answer: The value was “low polyreactivity”.

Question: With “QVQLVESGGGLVQAGGSLRISCAASGRILGKYAMGWYRQAPGKESELVAAIRLRGGSTYYADSVKGRFTISRDNEKNSVYLQMNSLKPEDTAVYYCAARYWDRSQAYNDWGQGTQVTVSS” as the sequence, how does the “polyreactivity (PSR sort gate)” value read?
Answer: Its value is “high polyreactivity”.

Question: For “QVQLVESGGGLVQAGGSLRISCAASGRISVFNVMGWYIQAPGKERELVAAITSGGSTKYADSVKGRFTISRDNAKNTVYLQMNSLKPEDTAVYYCAALYQFHGKIWDGDYWGQGTQVTVSS”, which “polyreactivity (PSR sort gate)” value is on record?
Answer: The value was “low polyreactivity”.

Question: For “QVQLVESGGGLVQAGGSLRISCAASGRIYYRYAMGWYRQAPGKERELVASISGSGGRTYYADSVKGRFTISRDNAKNTVYLQMNSLKPEDTAVYYCAARIRPSYDWGQGTQVTVSS”, which “polyreactivity (PSR sort gate)” value is on record?
Answer: The value was “high polyreactivity”.

Question: Which “polyreactivity (PSR sort gate)” value does the source give for “QVQLVESGGGLVQAGGSLRISCAASGRNYSYYAMGWYREAPGKERELVAAITYSGGSTYYADSVKGRFTITRDNAKNTVYLQMNSLKPEDTAVYYCAAGLSIYYWGQGTQVTVSS” here?
Answer: Its value is “low polyreactivity”.

Question: With “QVQLVESGGGLVQAGGSLRISCAASGRSFGVNAMGWYRQAPGKERELVAVISSGGSTYYADSVKVRFTISRDNAKNTVYLQMNSLKPEDTAVYYCNAVFGRWFPYNLSDYWGQGTQVTVSS” as the sequence, how does the “polyreactivity (PSR sort gate)” value read?
Answer: Its value is “low polyreactivity”.

Question: Which “polyreactivity (PSR sort gate)” value does the source give for “QVQLVESGGGLVQAGGSLRISCAASGRTFALNAMGWYRQAPGKERELVAAISSGGSTYYADSVKGRFTISRDNAKNTVYLQMNSLKPEDTAVYYCAKTSFKYRWSYPVISMDYWGQGTQVTVSS” here?
Answer: The value was “high polyreactivity”.

Question: Which “polyreactivity (PSR sort gate)” value does the source give for “QVQLVESGGGLVQAGGSLRISCAASGRTFDHYAMGWYRPAPGKERELVAAISFSGGSTYYADSVKGRLTISRDNAKNTVYLQMNRLKPEDTAVYYCAADYAYWLSGYDYWGQGTQVTVSS” here?
Answer: Its value is “low polyreactivity”.

Question: For “QVQLVESGGGLVQAGGSLRISCAASGRTFDYNAMGWYRQAPGKERELVAAIRFGGGSTYYADSVKGRFTISRDNAKNTVYFQMNSLKPEDTAVYYCNASPLWIGWEIVPVGSSHYDYWGQGTQVTVSS”, which “polyreactivity (PSR sort gate)” value is on record?
Answer: Its value is “low polyreactivity”.

Question: With “QVQLVESGGGLVQAGGSLRISCAASGRTFFFNAMGWYRQAPGKERELVAAISRTGRTNYADSVKGRFTISRDHAKNTVYLQMNSLKPEDTAVYYCAKTSYYLFGYWGHGTQVTVSS” as the sequence, how does the “polyreactivity (PSR sort gate)” value read?
Answer: The value was “high polyreactivity”.

Question: For “QVQLVESGGGLVQAGGSLRISCAASGRTFGANAMGWYRQAPGKERELVAGITSSGGSTSYADSVKGRFTISRDNAKNTVYLQMNSLKPEDTAVYYCAKDVYQHIFDVILGGYDSWGLGTQVTVSS”, which “polyreactivity (PSR sort gate)” value is on record?
Answer: Its value is “low polyreactivity”.
